Publication PMC11785957 (2025)
Where no end group is shown, it is not given here.

Target: human TLR3 ectodomain (Wuxi Biologics, C-terminal His and Avi tags) (human, UniProt O15455 24-704, biotinylated (for yeast display))
Assay: BLI

Binder | Kd
minibinder 8 (designed binder, also: biotinylated (site not given here)) SLEEEAERVVEELVKEFNLSETQEIALRRYAEFAAKAGASEEVIEELLRRVAERLS | 1200 nM
minibinder 7 (designed binder, also: biotinylated (site not given here)) SAMERYVKVLLRTAELAREAGDPEDVRKALEKAELVARILHNEELKEEIREVEEEL | 440 nM
